The target in data set [1] is T1, BRCA1 230-534 (UniProt P38398 230-534). Briefly: competition EMSA; 0.5 uM labelled linear duplex, 5 uM P1; 50 mM NaCl, 10 mM Tris-HCl pH 8.0, 0.5 mM EDTA, 1 mM DTT, 5% glycerol; 6% native PAGE in TAE at 4 C; incubation temperature not stated. The following applies: protein: recombinant, tags: none stated (expressed from pET22b), label: 5'-32P when used as probe. On the technique in general: In EMSA bound probe runs differently from free probe, usually more slowly.
T1 sequence (P38398 230-534): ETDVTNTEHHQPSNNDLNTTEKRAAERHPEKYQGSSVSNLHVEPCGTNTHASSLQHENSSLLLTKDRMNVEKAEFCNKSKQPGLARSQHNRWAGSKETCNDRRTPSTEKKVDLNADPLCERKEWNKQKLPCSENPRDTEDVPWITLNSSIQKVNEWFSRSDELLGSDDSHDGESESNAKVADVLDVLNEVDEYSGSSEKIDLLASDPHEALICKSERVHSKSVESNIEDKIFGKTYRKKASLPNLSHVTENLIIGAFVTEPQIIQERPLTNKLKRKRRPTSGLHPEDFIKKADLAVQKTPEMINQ

Data set [2] deals with T2, p53 (GST fusion) (UniProt P04637 1-393). In words: EMSA; 100-500 nM GST-p53, no BRCA1; 50 mM NaCl, 10 mM Tris-HCl pH 8.0, 0.5 mM EDTA, 1 mM DTT, 5% glycerol; 6% native PAGE in TAE at 4 C; incubation temperature not stated. The following applies: protein: recombinant, tags: N-terminal GST, uncleaved (pGEX2TKp53), chain copies: 4, label: 5'-32P when used as probe.
T2 sequence (P04637 whole entry, the tested form may be a part): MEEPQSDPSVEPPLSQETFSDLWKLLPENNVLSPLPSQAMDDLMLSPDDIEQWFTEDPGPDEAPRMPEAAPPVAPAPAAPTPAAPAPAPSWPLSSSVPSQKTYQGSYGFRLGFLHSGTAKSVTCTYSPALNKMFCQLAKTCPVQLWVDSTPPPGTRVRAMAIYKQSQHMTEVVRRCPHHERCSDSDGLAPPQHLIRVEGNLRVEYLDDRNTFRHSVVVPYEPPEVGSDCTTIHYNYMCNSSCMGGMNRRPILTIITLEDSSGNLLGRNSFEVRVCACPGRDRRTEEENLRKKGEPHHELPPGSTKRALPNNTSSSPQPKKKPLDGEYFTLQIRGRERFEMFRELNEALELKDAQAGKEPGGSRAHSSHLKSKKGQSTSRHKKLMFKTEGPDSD
For data set [3], the target named is T1, BRCA1 230-534. Briefly: EMSA; 1-5 uM P1, 0.5 uM DNA; 50 mM NaCl, 10 mM Tris-HCl pH 8.0, 0.5 mM EDTA, 1 mM DTT, 5% glycerol; 6% native PAGE in TAE at 4 C; incubation temperature not stated. Particulars: protein: recombinant; tags: none stated (expressed from pET22b); label: 5'-32P when used as probe; duplex.
Data set [4] deals with T2, p53 (GST fusion). Briefly: EMSA; 100-500 nM GST-p53, no BRCA1; no binding at 200 nM (lane 8); 50 mM NaCl, 10 mM Tris-HCl pH 8.0, 0.5 mM EDTA, 1 mM DTT, 5% glycerol; 6% native PAGE in TAE at 4 C; incubation temperature not stated. The following applies: protein: recombinant; tags: N-terminal GST, uncleaved (pGEX2TKp53); chain copies: 4; label: 5'-32P when used as probe; four-way junction.

[5] abbreviates: duplex with C:C mismatches (design after triple lesions).

The values below come from article PMC2396507, “Analysis of the DNA Binding Activity of BRCA1 and Its Modulation by the Tumour Suppressor p53”.

Numbering of substitutions follows the chain as printed.

B1: bulge containing DNA (dsDNA)
DNA 1: CACGCTAAGTCCGATGCGTGAGATCCGC
DNA 2: GCGGATCTCACGCGTATCGGACTTAGCGTG
B1: the binding signal in the data set with BRCA1 230-534 [1] (duplex with bulge) was 65 % reduction of P1 bound to labelled linear duplex at equimolar competitor. Besides, in the data set with p53 (GST fusion) [2] (duplex with bulge), the binding result is “no binding”.

B2: C:C mismatch DNA (dsDNA)
DNA 1: CCCTCGGAGCACTGCACAACCCCTGGCCGCCG
DNA 2: CGGCGGCCAGCGGTTCTGCACTGCTCCGAGGG
Consider B2, for which the binding signal in the data set with BRCA1 230-534 [1] (setting [5]) is 70 % reduction of P1 bound to labelled linear duplex at equimolar competitor. The binding result in the data set with p53 (GST fusion) [2] (setting [5]) is on record as “no binding”.

B3: linear duplex DNA (dsDNA)
DNA 1: B2 DNA 1
DNA 2: B2 DNA 2 with C11G, C16G, C21G
Consider B3, for which the binding result with BRCA1 230-534 [3] is reported as “binds”.

B4: four-way junction DNA (structured_DNA)
DNA 1: AGATCTGGCGTTAGGTGATACCGATGCATC
DNA 2: CATGCATCGGTATCAGGCTTACGACTAGTG
DNA 3: CACTAGTCGTAAGCCACTCGTGCTGAATTC
DNA 4: GAATTCAGCACGAGTCCTAACGCCAGATCT
Regarding B4, the binding result with p53 (GST fusion) [4] is on record as “binds”. Moreover, in the data set with BRCA1 230-534 [1] (four-way junction), the binding signal was 91 % reduction of P1 bound to labelled linear duplex at equimolar competitor.
